B1: major capsid protein (MCP) pb8 (natural protein, bacteriophage T5, UniProt Q6QGD8 160-458, looked up)
chain: AVNQSSSVEVSSESYETIFSQRIIRDLQKELVVGALFEELPMSSKILTMLVEPDAGKATWVAASTYGTDTTTGEEVKGALKEIHFSTYKLAAKSFITDETEEDAIFSLLPLLRKRLIEAHAVSIEEAFMTGDGSGKPKGLLTLASEDSAKVVTEAKADGSVLVTAKTISKLRRKLGRHGLKLSKLVLIVSMDAYYDLLEDEEWQDVAQVGNDSVKLQGQVGRIYGLPVVVSEYFPAKANSAEFAVIVYKDNFVMPRQRAVTVERERQAGKQRDAYYVTQRVNLQRYFANGVVSGTYAAS
notes: major capsid protein pb8 of bacteriophage T5, 458 residues; atomic model built for residues 164-457; also called MCP gp8; gp8

Assays:
Assay in all cases: cryo-EM structure; mature T5 virions (fiberless mutant) purified by CsCl gradients, in buffer A (100 mM NaCl, 1 mM MgSO4, 1 mM CaCl2, 10 mM Tris-HCl, pH 7.6); icosahedral, symmetry-mismatch and local reconstructions of head, portal, connector, tail tube and tail tip
[1] = biological target: tail terminator protein p142 (bacteriophage T5)
[2] = biological target: adaptor protein p144 (bacteriophage T5)
[3] = biological target: the molecule itself
[4] = biological target: B1; details: both partners purified

Row | Molecule | stoichiometry N [3] | also measured
1 | tail terminator protein p142 (natural protein) | – | stoichiometry N [1]: 6
2 | adaptor protein p144 (natural protein) | – | stoichiometry N [2]: 12
3 | B1 | 775 | –
4 | p140 (natural protein, bacteriophage T5, tail tip complex protein p140 of bacteriophage T5) MFYSLMRESKIVIEYDGRGYHFDALSNYDASTSFQEFKTLRRTIHNRTNYADSIINAQDPSSISLAINFSTTLIESNFFDWMGFTREGNSLFLPRNTPNIEPIMFNMYIINHNNSCIYFENCYVSTVDFSLDKSIPILNVGIESGKFSEVSTFRDGYTITQGEVLPYSAPAVYTNSSPLPALISASMSFQQQCSWREDRNIFDINKIYTNKRAYVNEMNASATLAFYYVKRLVGDKFLNLDPETRTPLIIKNKYVSITFPLARISKRLNFSDLYQVEYDVIPTADSDPVEINFFGERK | 3 | –
5 | distal tail protein pb9 (natural protein, bacteriophage T5, distal tail protein pb9 of bacteriophage T5) MRLPDPYTNPEYPGLGFESVNLVDNDPMIRDELPNGKVKEVKISAQYWGINISYPELFPDEYAFLDSRLLEYKRTGDYLDVLLPQYEAFRVRGDTKSVTIPAGQKGSQIILNTNGTLTGQPKAGDLFKLSTHPKVYKITNFSSSGNVWNISLYPDLFITTTGSEKPVFNGILFRTKLMNGDSFGSTLNNNGTYSGISLSLRESL | 6 | –
6 | baseplate hub protein pb3 (natural protein, bacteriophage T5, baseplate hub protein pb3 of bacteriophage T5) MKKILDSAKNYLNTHDKLKTACLIALELPSSSGSAATYIYLTDYFRDVTYNGILYRSGKVKSISSHKQNRQLSIGSLSFTITGTAEDEVLKLVQNGVSFLDRGITIHQAIINEEGNILPVDPDTDGPLLFFRGRITGGGIKDNVNTSGIGTSVITWNCSNQFYDFDRVNGRYTDDASHRGLEVVNGTLQPSNGAKRPEYQEDYGFFHSNKSTTILAKYQVKEERYKLQSKKKLFGLSRSYSLKKYYETVTKEVDLDFNLAAKFIPVVYGVQKIPGIPIFADTELNNPNIVYVVYAFAEGEIDGFLDFYIGDSPMICFDETDSDTRTCFGRKKIVGDTMHRLAAGTSTSQPSVHGQEYKYNDGNGDIRIWTFHGKPDQTAAQVLVDIAKKKGFYLQNQNGNGPEYWDSRYKLLDTAYAIVRFTINENRTEIPEISAEVQGKKVKVYNSDGTIKADKTSLNGIWQLMDYLTSDRYGADITLDQFPLQKVISEAKILDIIDESYQTSWQPYWRYVGWNDPLSENRQIVQLNTILDTSESVFKNVQGILESFGGAINNLSGEYRITVEKYSTNPLRINFLDTYGDLDLSDTTGRNKFNSVQASLVDPALSWKTNSITFYNSKFKEQDKGLDKKLQLSFANITNYYTARSYADRELKKSRYSRTLSFSVPYKFIGIEPNDPIAFTYERYGWKDKFFLVDEVENTRDGKINLVLQEYGEDVFINSEQVDNSGNDIPDISNNVLPPRDFKYTPTPGGVVGAIGKNGELSWLPSLTNNVVYYSIAHSGHVNPYIVQQLENNPNERMIQEIIGEPAGLAIFELRAVDINGRRSSPVTLSVDLNSAKNLSVVSNFRVVNTASGDVTEFVGPDVKLAWDKIPEEEIIPEIYYTLEIYDSQDRMLRSVRIEDVYTYDYLLTYNKADFALLNSGALGINRKLRFRIRAEGENGEQSVGWATI | 3 | –
7 | decoration protein pb10 (natural protein, bacteriophage T5, UniProt Q6QGD6 1-164, looked up, decoration protein pb10 of bacteriophage T5, 164 residues; alpha-helical domain and Ig-like domain; only residues 2-68 (alpha-helical domain) were resolved; One pb10 at the centre of each hexon; the Ig-like domain is flexible and was not modelled; also called gp10) MIDYSGLRTIFGEKLPESHIFFATVAAHKYVPSYAFLRRELGLSSAHTNRKVWKKFVEAYGKAIPPAPPAPPLTLSKDLTASMSVEEGAALTLSVTATGGTGPYTYAWTKDGSPIPDASGATYTKPTAAAEDAGSYKVTVTDSKQVSKDSTTCAVTVNPTVPGG | – | binding result [4]: binds
8 | portal protein pb7 (natural protein, bacteriophage T5, portal protein pb7 of bacteriophage T5, 403 residues in total; atomic model built for residues 11-377; source: also in virions treated with 4 M urea for 2 h at 37 °C and dialyzed; copies: 12) LNPGQRIIRDMEPVSHRTNRKPFTTGQAYSKIEILNRTANMVIDSAAECSYTVGDKYNIVTYANGVKTKTLDTLLNVRPNPFMDISTFRRLVVTDLLFEGCAYIYWDGTSLYHVPAALMQVEADANKFIKKFIFNNQINYRVDEIIFIKDNSYVCGTNSQISGQSRVATVIDSLEKRSKMLNFKEKFLDNGTVIGLILETDEILNKKLRERKQEELQLDYNPSTGQSSVLILDGGMKAKPYSQISSFKDLDFKEDIEGFNKSICLAFGVPQVLLDGGNNANIRPNIELFYYMTIIPMLNKLTSSLTFFFGYKITPNTKEVAALTPDKEAEAKHLTSLVNNGIITGNEARSELNLEPLDDEQMNKIRIPANVAGSATGVSGQEGGRPKGSTEGD | 12 | –
9 | tail tube protein (TTP) pb6 (natural protein, bacteriophage T5, tail tube protein pb6 of bacteriophage T5; domains pb6D1, pb6D2 and a protruding Ig-like domain; atomic model built for residues 3-378 (pb6D1 and pb6D2); The tail tube has 40 stacked trimeric rings) MSLQLLRNTRIFVSTVKTGHNKTNTQEILVQDDISWGQDSNSTDITVNEAGPRPTRGSKRFNDSLNAAEWSFSTYILPYKDKNTSKQIVPDYMLWHALSSGRAINLEGTTGAHNNATNFMVNFKDNSYHELAMLHIYILTDKTWSYIDSCQINQAEVNVDIEDIGRVTWSGNGNQLIPLDEQPFDPDQIGIDDETYMTIQGSYIKNKLTILKIKDMDTNKSYDIPITGGTFTINNNITYLTPNVMSRVTIPIGSFTGAFELTGSLTAYLNDKSLGSMELYKDLIKTLKVVNRFEIALVLGGEYDDERPAAILVAKQAHVNIPTIETDDVLGTSVEFKAIPSDLDAGDEGYLGFSSKYTRTTINNLIVNGDGATDAVTAITVKSAGNVTTLNRSATLQMSVEVTPSSARNKEVTWAITAGDAATINATGLLRADASKTGAVTVEATAKDGSGVKGTKVITVTAGG | 3 | –
